{
  "source": "paper PMC7083938",
  "about": "(2020)",
  "binders": {"B1": {"name": "NELL2 mouse (protein)", "chain": "DIDECAEGRHYCRENTMCVNTPGSFMCICKTGYIRIDDYSCTEHDECLTNQHNCDENALCFNTVGGHNCVCKPGYTGNGTTCK"}},
  "key": {"Robo1 FN1 mouse": {"target": "T1, Robo1 FN1 mouse (Mus musculus (Mouse), UniProt O89026)", "T1 chain": "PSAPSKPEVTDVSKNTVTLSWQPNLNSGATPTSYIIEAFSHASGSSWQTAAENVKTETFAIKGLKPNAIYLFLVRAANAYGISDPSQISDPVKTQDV", "test": "SPR equilibrium"}, "Robo3 FN1 mouse": {"target": "T2, Robo3 FN1 mouse (Mus musculus (Mouse), UniProt Q9Z2I4)", "T2 chain": "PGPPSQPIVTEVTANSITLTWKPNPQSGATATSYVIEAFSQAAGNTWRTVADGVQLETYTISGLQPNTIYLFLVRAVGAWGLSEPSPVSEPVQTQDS", "test": "SPR equilibrium"}},
  "data": [
    {"binder": "B1", "values": [
      {"measurement": "Kd", "setting": "Robo1 FN1 mouse", "value": 13.8, "unit": "µM"},
      {"measurement": "Kd", "setting": "Robo3 FN1 mouse", "value": 0.71, "unit": "µM"}
    ]}
  ]
}
